# Residue numbers refer to the chain shown, from its start.
# How the values were obtained:
# Assay in all cases: EMSA
# Details in all cases: pH 7.5, 30 min at 37 C
# [1] = molecular target: T1, GntR-S41A S41A (Streptococcus suis serotype 2 ZY05719) (UniProt A0A0H3MTN4)
# T1 sequence: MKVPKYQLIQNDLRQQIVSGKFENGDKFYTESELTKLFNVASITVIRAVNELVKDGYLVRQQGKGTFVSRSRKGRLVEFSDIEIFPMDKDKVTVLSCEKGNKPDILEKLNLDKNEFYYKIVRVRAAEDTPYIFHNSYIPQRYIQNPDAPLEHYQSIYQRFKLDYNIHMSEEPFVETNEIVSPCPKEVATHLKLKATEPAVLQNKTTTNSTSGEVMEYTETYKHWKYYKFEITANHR
# [2] = molecular target: T2, GntR-S41E S41E (Streptococcus suis serotype 2 ZY05719) (UniProt A0A0H3MTN4)
# T2 sequence: T1 sequence with A41E
# [3] = molecular target: T3, GntR (Streptococcus suis serotype 2 ZY05719) (UniProt A0A0H3MTN4)
# T3 sequence: T1 sequence with A41S
sequence,measurement,setting,value
GCCATAATGTAAAATCTCACTTTCGAAAATATATTTTTTTACGAACTATATTATACAATATAAATGTTACCGATTTCAAAAAATATGCTCAGAATATCACATTTTTTTCAAAAAGTTTTTGAAATGCTATTTTCTTTAAACAATGTAAAGATATATAAAAGCAAAAACCTAGATTTCTCTAGGTTTCTCTTAACGTACTTGTTCAAAACGC (double strand) [nox promoter],binding,[1],binds
same,binding,[2],no binding
same,binding,[3],binds

# Reference: paper PMC10010549
